Among the data in the RNAGym collection of RNA variant scans (doi:10.7554/elife.90254) are self-cleavage values, retold here.

B1: OR4K15 (parent)
chain: GUUAACGGUCAUAGGCCAUGGAAACUAGGAGCACCAUUUCGCUGCCAGUGAAGAAAUGAACAAAGAAAAUCUGGGCCAGGCAGGCAUCAAAAGAAAUAGUCUUGCGCUCAACCAGAAAGUCUGUAAUCAUUUUAAGGGUA

The data set covers variants of B1. The data set can be described thus: self-cleavage, relative activity (ratio to wild type); higher = more cleavage; in vitro, sequencing; the parent is a self-cleaving ribozyme.
GUUAACGGUCAUAGGCCACGGAAACUAGGAGCACCAUUUCGCUGCCAGUGAAGAAAUGAACAAAGAAAAUCUGGGCCAGGCAGGCAUCAAAAGAAAUAGUCUUGCGCUCAACCAGAAAGUCUGUAUUCAUUUUAAGGGUA [U19C A126U]: the self-cleavage was 0.65.
With GUUAACGGUCAUAGGCCAUGGAAACUAGGAUCACCAUUUCGCUGCCAGUGAAGAAAUGAACAAAGAAAAUCUGGGCCAGGCAGGCAUCAAAAGAAAUAGUCUUGCGCUCAACCAGAAAGUCUGUAAUCAUUUUAAGGGUA [G31U] the figure was 1.7; with GUUAACGGUCAUAGGCCGUGGAAACUAGGAGCACCAUUUCGCUGCCAGUGAAGAAAUGAACAAAGAAAAUCUGGGCCAGGCAGGCAUCAAAAGAAAUAGUCUUGCGCUCAACCAGAAAGUCUGUAUUCAUUUUAAGGGUA [A18G A126U], 0.44; with GUUAACGGUCAUAGGCCAUGGAAACUAGGAGCACCAUUUCGCUGCCAGUGAAGAAAUGAACAAUGAAAAUCUGGGCCAGGCAGGCAUCAAAAGAAAUAGUCUUGCGCUCAACCAAAAAGUCUGUAAUCAUUUUAAGGGUA [A64U G115A], 0.02.
With GUUAACGGUCAUAGGCCAUGGAGACUAGGAGCACCAUUUCGCUGCCAGUGAAGAAGUGAACAAAGAAAAUCUGGGCCAGGCAGGCAUCAAAAGAAAUAGUCUUGCGCUCAACCAGAAAGUCUGUAAUCAUUUUAAGGGUA [A23G A56G] the figure was 1.18; with GUUAACGGUCAUAGGCCAUGGUAACUAGGAGCACCAUUUCGCUGCCAGUGAAGAAAUGUACAAAGAAAAUCUGGGCCAGGCAGGCAUCAAAAGAAAUAGUCUUGCGCUCAACCAGAAAGUCUGUAAUCAUUUUAAGGGUA [A22U A59U], 1.71; with GUUAACGGUCACAGGCCAUGGAAACUAGGAGCACCAUUUCGCUGCCAGUGAAGAAAUGAACAAAGAAAAUCUGGGCCAGGCAGGCGUCAAAAGAAAUAGUCUUGCGCUCAACCAGAAAGUCUGUAAUCAUUUUAAGGGUA [U12C A86G], 0.8.
The figure for GUUAACGGUCAUAGGCCAUGGAAACUAGGAGCACCAUUUCGCUGCCAGUGAAGAAAUGAUCAAAGAAAAUCUGGGCCAGGCAGGCGUCAAAAGAAAUAGUCUUGCGCUCAACCAGAAAGUCUGUAAUCAUUUUAAGGGUA [A60U A86G] is 0.74; for GUUAACGGUCAUAGGCCAUGGAAACUAGGAGCACCAUUUCGCUGCCAGUGAAGAAAUGAACAAAGAAAAUCUGGGCCAGGCAGGCAUCAAAAGAAAUAGUCUUGCGCUCAACCAGAAGGUCUAUAAUCAUUUUAAGGGUA [A118G G123A] it is 0.58; for GUUAACGGUCAUAGGCCAUGGGAACUAGGAGCACCAUUUCGCUGCCAGUGUAGAAAUGAACAAAGAAAAUCUGGGCCAGGCAGGCAUCAAAAGAAAUAGUCUUGCGCUCAACCAGAAAGUCUGUAAUCAUUUUAAGGGUA [A22G A51U] it is 1.24.
For the variant GUUAACGGUCAUAGGCCAUGGAAACUAGGAGCACCAUUUCGCUGCCAGUGAAGAAAUGAACAAAGAAGAUCUGGGCCAGGCAGGCAUCAAAAGAAAUGGUCUUGCGCUCAACCAGAAAGUCUGUAAUCAUUUUAAGGGUA [A68G A98G], the self-cleavage worked out at 0.16.
Consider GUUAACGGUCAUAGGCCAUGGAAACUAGGAGCACCAUUACGCUGCCAGUGAAGAAAUGAACAAAGAAAAUCUGGGCCAGGCAGGCAUCAAAAGAAAUAGUCUUGCGCUCAACCAGUAAGUCUGUAAUCAUUUUAAGGGUA [U39A A116U], for which the self-cleavage was determined as 0.09.
Consider GUUAACGGUCAUAGGCCAUGGAAACUAGGAGCACCAUUUCGCUGCCAGUGAAGAAAUGAACAAAGAAAAUCUGAGCCAGGAAGGCAUCAAAAGAAAUAGUCUUGCGCUCAACCAGAAAGUCUGUAAUCAUUUUAAGGGUA [G74A C81A], for which the self-cleavage was determined as 0.19.
In the case of GUUAACGGUCAUAGGCCAUGGAAACUAGGAGCACCAUUUCGCUGCCAGUGAAGAAAUGAACAAAGGAAAUCUGGGCCAGGCAGGCAUCAAAAGAAAUAGUCUUACGCUCAACCAGAAAGUCUGUAAUCAUUUUAAGGGUA [A66G G104A], the self-cleavage turned out to be 0.03.
With GUUAACGGUCAUAGGCCAUGGAAACUAGGAGCACCAUUUCGCUGCCAGUGAGGAAAUGAGCAAAGAAAAUCUGGGCCAGGCAGGCAUCAAAAGAAAUAGUCUUGCGCUCAACCAGAAAGUCUGUAAUCAUUUUAAGGGUA [A52G A60G], the self-cleavage amounted to 1.32.
The figure for GUUAACGGUCAUAGGCCAUGGAAACUAGGAGCACCAUCUCGCUGCCAGUGAAGAAAUGAACAAAGAAAAUCUGGGCCAGGCAGGCAUCAAAAGAAAUAGUCUUGUGCUCAACCAGAAAGUCUGUAAUCAUUUUAAGGGUA [U38C C105U] is 0.19.
The figure for GUUAACGGUCAUAGGCCAUGGAAACUAGGAGCACCAUUUCGCUGCCAGUGAAGAAAUGAACCAAGAAAAUCUGGGCCAGGCAGGCAUCAAAAGAAAUAGUCUUGCGCUCAACCAGAAAGUCUGUAAUCAUUUUAAGGGUA [A62C] is 1.64.
Consider GUUAACGGUCAUAGGCCAUGGAAACUAGGAGCACCAUUUCGCUGCCAGUGAAGAAAUGAACAAAGAAAACCUGGGCCAGGCAGGCAUCAAAAGAAAUAGUCUUGCGCUCUACCAGAAAGUCUGUAAUCAUUUUAAGGGUA [U70C A110U], for which the self-cleavage was 0.92.
As for GUUAACGGUCAUAGGCCAUGGAAACUAGGAGCACCAUUUCGCUGCCAGUGAAGAAAUGAACAAAGAAGAUCUGGGCCAGGCAGGCAUCAAAAGAAAUAGUCCUGCGCUCAACCAGAAAGUCUGUAAUCAUUUUAAGGGUA [A68G U102C], the self-cleavage came to 1.9.
In the case of GUUAACGGUCAUAGGCCAUGGAACCUAGGAGCACCAUUUCGCUGCCAGUGAAGAAAUGAACAAAGAAAAUCUGGGCCAGGCAGGCAUCAAAAGAAAUAGUCUUGCGCACAACCAGAAAGUCUGUAAUCAUUUUAAGGGUA [A24C U108A], the self-cleavage amounted to 0.01.
The figure for GUUAACGGUCAUAGGCCAUGGAAACUAGGAGCACCAUUUCGCCGCCAGUGAAGAAAUGAACAAAGAAAAUCUGGGCCAGGCAGGCAUCAAAAGAACUAGUCUUGCGCUCAACCAGAAAGUCUGUAAUCAUUUUAAGGGUA [U43C A96C] is 1.
GUUAACGGUCAUAGGCCAUGGAAACUAGGAGCACCAUUUCGCUGCCAGUGAAGAAAUGAACAUAGAAAAUCUGGGCCAGGCAGGCAUCAAAAGAAAUAGUCUUGCGCUCAACCAGAAAGUCUGUAAUCAUUUUAAGGGUU [A63U A140U]: the self-cleavage was 1.52.
The figure for GUUAACGGUCAUAGGCCAUGGAAACUAGGAGCACCAUUUCGCUGCCGGUGAAGAAAUGAACAAAGAAAAUCUGGGCCAGGCAGGCAUCAAAAGAGAUAGUCUUGCGCUCAACCAGAAAGUCUGUAAUCAUUUUAAGGGUA [A47G A95G] is 1.71; for GUUAACGGUCGUAGGCCAUGGAAACUAGGAGCACCAUUUCGCUGCCAGUGAAGAAAUGAACAAAGAAAAUCUGGGCCAGGCAGGCAUCAAAAGAAGUAGUCUUGCGCUCAACCAGAAAGUCUGUAAUCAUUUUAAGGGUA [A11G A96G] it is 1.18.
With GUUAACGGUCAUAGGCCAUGGAAACUAGGAGCACCAUUUCGCUGCCAGUGAAGAAAUGAACAAAGGAAAUCUGGGCCAGGCAGGCAUCAAAAGAAAUAGUCUUGCGCUCAACCAGGAAGUCUGUAAUCAUUUUAAGGGUA [A66G A116G] the figure was 0.6; with GUUAACGGUCAUAGGCCAUGGAAACUAGGAGCACCAUUUCGCUACCAGUGAAGAAAUGAACAAAGAAAAUCUGGGCCGGGCAGGCAUCAAAAGAAAUAGUCUUGCGCUCAACCAGAAAGUCUGUAAUCAUUUUAAGGGUA [G44A A78G], 0.24.
With GUUAACGGUCAUAGGCCAUGGAAACUAGGAGCACCAUUUCGCUGCCAGUGAAGAAAUGAACAAAGAAAAUCUGGGCCAGGCAGGCAUCAAAAGAAAUAGUCUUGCGCUCAACCAGAAAGUCUGUAAUCAUUUUAAGUGUA [G137U] the figure was 2.05.
For the variant GUUAUCGGUCAUAGGCCAUGGAAACUAGGAGCACCAUUUCGCUGCCAGUGAAGAAAUGAACAAAGAAAAUCUGGGCCAGGCAGGCAUCAAAAGAGAUAGUCUUGCGCUCAACCAGAAAGUCUGUAAUCAUUUUAAGGGUA [A5U A95G], the self-cleavage was determined as 1.59.
With GUUAACAGUCAUAGGCCAUGGAAACUAGGAGCACCAUUUCGCUGCCAGUGAAGAAAUGAACAAAGAAAAUCUGGUCCAGGCAGGCAUCAAAAGAAAUAGUCUUGCGCUCAACCAGAAAGUCUGUAAUCAUUUUAAGGGUA [G7A G75U] the figure was 0.13.
The figure for GUUAACGGUCAUUGGCCAUGGAAACUAGGAGCACCAUUUCGCUGCCAGUGAAGAAAUGAACAAAGAAAAUCUGGGCCAGGCAGGCAUCAAAAGAAAUAGUCUUGCGCUCUACCAGAAAGUCUGUAAUCAUUUUAAGGGUA [A13U A110U] is 1.26.
With GUUAACGGUCAUAGGCCAUGGAAACUAGGAGCACCAUUUCGCUGCCAGUGAUGAAAUGAACAAAGAAAAUCUGGGCCAGGCAGGCAUCAAAAGAAAUAGUCUUGCGCUCAACCAGAAAGUCUGUAAUCAUUUUAAGAGUA [A52U G137A] the figure was 1.58; with GUUAACGGUCAUAGGCCAUGGAAACUAGGAGCACCAUUUCGCUGCCAGUGAAGAAAUGAACAAAGAAAACCUGGGCCAGGCAGGCAUCCAAAGAAAUAGUCUUGCGCUCAACCAGAAAGUCUGUAAUCAUUUUAAGGGUA [U70C A89C], 0.49; with GUUAACGGUCAUAGGCCAUGGAAACUAGGAGCACCAUUUCGCUGCCAGUGCAGAAAUGAACAAAGAAAAUCUGGGCCAGGCAGGCAUCAAAAGAAAUAGUCUUGCGCUCUACCAGAAAGUCUGUAAUCAUUUUAAGGGUA [A51C A110U], 0.82.
On to GUUAACGGUCAUAGGCCAUGGAAACUAGGAGCACCAUUUCGCAGCCAGUGAAGAAAUGAACAAAGAAAAUCUGGGCCAGGCAGGCAUCAAAAGAAAUAGUCUUGCGCUCAACCGGAAAGUCUGUAAUCAUUUUAAGGGUA [U43A A114G], for which the self-cleavage was found to be 0.86.
With GUUAACGGUCAUAGGCCAUGGAAACUAGGAGCACCAUUUCGCUGCCAGUGAAGAAAUGAACAAGGAAAAUCUGGGCCAGGCAGGCAUCAAAAGAAAUAGUCUUGCGCUCAACCAGAAAGUCUGUAAUCAUUCUAAGGGUA [A64G U132C] the figure was 1.53; with GUUAACGGUCAUAGGCCAUGGAAACUAGGAGCACCAUUUCGCUGCCAGUGAAGAAAUGAACACAGAAAAUCUGUGCCAGGCAGGCAUCAAAAGAAAUAGUCUUGCGCUCAACCAGAAAGUCUGUAAUCAUUUUAAGGGUA [A63C G74U], 0.15; with GUUAACGGUCAUAGGCCAUGGAAACUAGGAGCACCAUUUCGCUGCCAGUGAAGAAAUGAACAAAGCAAAUCUGGGCCAGGCAGGCAUCAAAAGAAAUAGUCUUGCGCUCAACAAGAAAGUCUGUAAUCAUUUUAAGGGUA [A66C C113A], 0.02.
The figure for GUUAACGGUCAUAGGCCAUGGAAACUAGGAGCACCAUUUCUCUGCCAGUGGAGAAAUGAACAAAGAAAAUCUGGGCCAGGCAGGCAUCAAAAGAAAUAGUCUUGCGCUCAACCAGAAAGUCUGUAAUCAUUUUAAGGGUA [G41U A51G] is 1.69.
With GUUAACGGUCAUAGGCCAUGGAAACUAGGAGCACCAUUUCGCUGCCGGUGAAGAAAUGAACUAAGAAAAUCUGGGCCAGGCAGGCAUCAAAAGAAAUAGUCUUGCGCUCAACCAGAAAGUCUGUAAUCAUUUUAAGGGUA [A47G A62U] the figure was 1.22; with GUUAACGGUCAUCGGCCAUGGAAACUAGGAGCACCAUUUCGCUGCCAGUGAAGAAAUGAGCAAAGAAAAUCUGGGCCAGGCAGGCAUCAAAAGAAAUAGUCUUGCGCUCAACCAGAAAGUCUGUAAUCAUUUUAAGGGUA [A13C A60G], 1.39; with GUUAACGGUCAUAGGCCAUGGAAACUAGGAGCACCAUUUCGCUGCCAGUGAAGAAAUGAACAAAGAAAACCUGGGCCAGGCAGGCGUCAAAAGAAAUAGUCUUGCGCUCAACCAGAAAGUCUGUAAUCAUUUUAAGGGUA [U70C A86G], 0.86.
